The test deals with TYLCV coat protein (CP) in viruliferous whiteflies (tomato yellow leaf curl virus (TYLCV) isolate SH2).

“Vitellogenin (Vg) of MEAM1 whitefly (Bta07851), endogenous (natural protein)” had a proportion of phase V midguts (TYLCV movement across the midgut, IFA) in Vg antibody-treated whiteflies after a 24-h AAP; control group 55% of 30%; a reduction of the disease incidence rate of tomato plants in the Vg antibody treatment against the control, 15 days (27%) and 30 days (35%) posttransmission of 35%.
